Here are results for one substance from PMC9997507.

The assay addresses ADAM23-Fc (UniProt Q9R1V7). The assay is described as follows: pull-down; as a2 but with co-expressed LGI3 (LGI3V5/His plasmid); secreted proteins precipitated from conditioned medium with Protein A or Ni-NTA beads; Western blot, band densities quantified in triplicate for ADAM23Fc with ADAM23γHis. On the technique in general: A western blot detects proteins with antibodies after separation by electrophoresis.

Take ADAM23γV5/His (domain or fragment): the fold change of the interaction with LGI3 against without LGI3 was 2.5 fold.
